This note sets out measurements from patent publication US20220153796A1.

The target in this test is HLA-A*24 (human). Kind of test: UV peptide exchange ELISA. Background: An ELISA detects its analyte on a solid surface through an enzyme-linked reagent.
TLPNTIYRF came in with a peptide exchange yield of over 75%.
Regarding QYEPPSAPSTTF, the peptide exchange yield is 50 to 75%.
The molecule RYMKKDYLI came in with a peptide exchange yield of over 75%.
The value for MYPDLSELLM was over 75%; that for KYALLLQDL was over 75%.
As to MQPRMFFLF, the peptide exchange yield was over 75%.
QWPWQASLQF: the peptide exchange yield is over 75%.
TYNPDFSSL had a peptide exchange yield of 50 to 75%.
Molecule VYPLLSRLYW had a peptide exchange yield of over 75%.
In turn, IQMDEPMAF came in with a peptide exchange yield of 10 to 20%.
The molecule YLEKFYGL gave a peptide exchange yield of 20 to 50%.
TQPGDWTLF: the peptide exchange yield was over 75%.
DYIGSVEKW displayed a peptide exchange yield of over 75%.
The value for SYEVRSTF was 50 to 75%.
In turn, SYEKVINYL returned a peptide exchange yield of over 75%.
As to PFLPPAACFF, the peptide exchange yield was over 75%.
Under VFIDHPVHLKF stands over 75%; under KYKDYFPVI, over 75%.
KYADYFLEV showed a peptide exchange yield of over 75%.
For the molecule YYSKSVGFMQW, the peptide exchange yield was over 75%.
In turn, SLPDLTPTF displayed a peptide exchange yield of over 75%.
KYTNWKAFL yielded a peptide exchange yield of over 75%.
Molecule QYQNVLTLW displayed a peptide exchange yield of over 75%.
SYNGYVFYL showed a peptide exchange yield of over 75%.
Molecule VWSDVTPLNF displayed a peptide exchange yield of over 75%.
VWSNVTPLKF: the peptide exchange yield is over 75%.
Molecule LYISEVRNI yielded a peptide exchange yield of over 75%.
Molecule KTPTNYYLF yielded a peptide exchange yield of over 75%.
Molecule AYLSAVGTF showed a peptide exchange yield of over 75%.
The value for SYPELVKMVW was over 75%; that for ILKEDPFLF was 10 to 20%.
The molecule NYTLYPITF came in with a peptide exchange yield of over 75%.
Molecule HYTYILEVF gave a peptide exchange yield of over 75%.
With KYLEESVWL, the peptide exchange yield was over 75%.
In turn, KQMEDGHTLF displayed a peptide exchange yield of 20 to 50%.
Under KFIISDWRF stands over 75%; under YYSIISHTL, over 75%; under KYALLLQEL, over 75%.
Regarding EFTTVLYNF, the peptide exchange yield was over 75%.
QYDPTPLTW showed a peptide exchange yield of over 75%.
For VQQWSVAVF, the peptide exchange yield was in the range of 50 to 75%.
Under AFPVTSIFHTF stands over 75%; under STIRGELFFF, 10 to 20%; under KSSVIASLLF, 50 to 75%.
The value for LIFMLANVF was 10 to 20%; that for SYSSCYSF was 50 to 75%; that for YYADKKTFIVL was 50 to 75%.
Take KYFVPPQLF: the peptide exchange yield is over 75%.
For QYLPGWTVLF, the peptide exchange yield is over 75%.
